The values below come from patent US20250043302A1, “MUTATED HYDROXYPHENYLPYRUVATE DIOXYGENASE POLYPEPTIDE, AND CODING GENE AND USE THEREOF” (BEIJING DABEINONG BIOTECHNOLOGY CO., LTD., priority 2021, published 2025).

The test system of data set [1] is Arabidopsis thaliana T1 plants. The data set can be described thus: Isoxaflutole tolerance of transgenic Arabidopsis thaliana T1 plants (spray, bleached leaf area grade, damage score).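 On Scores: Weighted damage index from 0 to 100 where higher means more damage.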 Format: in vivo. The settings on record: Table 11; for Classification and statistics of the grade of pesticide damage Grade 0: number of plants at grade 0; for Classification and statistics of the grade of pesticide damage Grade 1: number of plants at grade 1; for Classification and statistics of the grade of pesticide damage Grade 2: number of plants at grade 2; for Classification and statistics of the grade of pesticide damage Grade 3: number of plants at grade 3; for Scores: pesticide damage score. The source says:
(§1) T1 transformants were initially selected from the untransformed seeds using a glufosinate selection scheme. The Arabidopsis thaliana T1 plants (AsHPPD-02) into which the AsHPPD-02 nucleotide sequence was introduced, the Arabidopsis thaliana T1 plants (AsHPPDm-F372A-02) into which the AsHPPDm-F372A-02 nucleotide sequence was introduced, the Arabidopsis thaliana T1 plants (AsHPPDm-F383W-02) into which the AsHPPDm-F383W-02 nucleotide sequence was introduced, the Arabidopsis thaliana T1 plants (AsHPPDm-F372A-F383W-02) into which the AsHPPDm-F372A-F383W-02 nucleotide sequence was introduced, the Arabidopsis thaliana T1 plants (DBN11726N) into which the control recombinant expression vector DBN11726N was introduced, and the wild-type Arabidopsis thaliana plants (CK) (18 days after sowing) were sprayed respectively with topramezone at three concentrations (100 g ai/ha (four-fold field concentration, 4×), 200 g ai/ha (eight-fold field concentration, 8×), and 0 g ai/ha (water, 0×)), isoxaflutole at three concentrations (140 g ai/ha (two-fold field concentration, 2×), 280 g ai/ha (four-fold field concentration, 4×), and 0 g ai/ha (water, 0×)), and mesotrione at three concentrations (210 g ai/ha (two-fold field concentration, […]), 420 g ai/ha (four-fold field concentration, 4×), and 0 g ai/ha (water, 0×)), to determine the tolerance of Arabidopsis thaliana to the herbicides. The degree of damage caused by the herbicide was measured for each plant according to the proportion of bleached leaf area (the proportion of bleached leaf area=bleached leaf area/total leaf area×100%) 7 days after spraying (7 DAT): the case where there is basically no bleached phenotype is defined as grade 0, the case where the proportion of bleached leaf area is less than 50% is defined as grade 1, the case where the proportion of bleached leaf area is more than 50% is defined as grade 2, and the case where the proportion of bleached leaf area is 100% grade is defined as grade 3.
(§2) According to the method as described above in point 6 of Example 1, the aforementioned Arabidopsis thaliana T1 plants and wild-type Arabidopsis thaliana plants (CK) (18 days after sowing) were sprayed respectively with topramezone at three concentrations (25 g ai/ha (one-fold field concentration, 1×). 100 g ai/ha (four-fold field concentration, 4×), and 0 g ai/ha (water, 0×)), isoxaflutole at three concentrations (35 g ai/ha (half-fold field concentration, 0.5×). 70 g ai/ha (one-fold field concentration, 1×), and 0 g ai/ha (water, 0×)), and mesotrione at three concentrations (52.5 g ai/ha (half-fold field concentration, 0.5×), 105 g ai/ha (one-fold field concentration, 1×), and 0 g ai/ha (water, 0×)) to detect the tolerance of Arabidopsis thaliana to the herbicides.
(§3) According to the method as described above in point 6 of Example 1, the aforementioned Arabidopsis thaliana T1 plants and wild-type Arabidopsis thaliana plants (CK) (18 days after sowing) were sprayed with topramezone at three different concentrations (i.e., 100 g ai/ha (four-fold field concentration, 4×), 200 g ai/ha (eight-fold field concentration, 8×) and 0 g ai/ha (water, 0×)), isoxaflutole at three different concentrations (i.e., 140 g ai/ha (two-fold field concentration, 2×), 280 g ai/ha (four-fold field concentration, 4×) and 0 g ai/ha (water, 0×)), and mesotrione at three different concentrations (i.e., 210 g ai/ha (two-fold field concentration, 2×), 420 g ai/ha (four-fold field concentration, 4×) and 0 g ai/ha (water, 0×)) respectively to detect the herbicide tolerance of Arabidopsis thaliana. […]

Data set [2] deals with Arabidopsis thaliana T1 plants. As to the kind of experiment: Mesotrione tolerance of transgenic Arabidopsis thaliana T1 plants (spray, bleached leaf area grade, damage score). It is filed as in vivo. Set-up: Scores: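 damage score 0-100 computed as Σ(N×S)/(T×M)×100 over grades 0-3 with higher meaning more damage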. The settings on record: Table 12; for Classification and statistics of the grade of pesticide damage Grade 0: number of plants at grade 0; for Classification and statistics of the grade of pesticide damage Grade 1: number of plants at grade 1; for Classification and statistics of the grade of pesticide damage Grade 2: number of plants at grade 2; for Classification and statistics of the grade of pesticide damage Grade 3: number of plants at grade 3; for Scores: pesticide damage score.
Source text: as §1, §2, §3

B1: AsHPPDm-A107-F383W-02: nucleotide sequence encoding Avena sativa HPPD with A107 deletion+F383W; vector DBN11779 (nucleic acid)
DNA: ATGCCACCTACTCCAGCTACAGCTACTGGTGCTGCTGCTGCTGCCGTTACTCCTGAGCACGCTGCCAGGTCATTCCCCAGGGTGGTTCGCGTGAACCCCAGATCTGATAGGTTCCCAGTTCTGAGCTTCCACCATGTTGAGCTGTGGTGCGCTGATGCTGCTTCTGCTGCTGGCAGGTTCTCTTTCGCTCTTGGTGCTCCACTCGCTGCTAGATCTGATCTGTCTACAGGAAATAGCGCTCATGCCTCACTCCTGCTTCGCTCAGGTGCTTTGGCCTTCCTCTTCACCGCTCCATATGCTCCCCCACCTCAGGAGGCTACTGCTGCTGCTACAGCCTCCATTCCAAGCTTCTCAGCTGATGCCGCTAGAACCTTCGCTGCTGCTCATGGACTTGCCGTGAGGTCTGTTGGTGTTCGCGTGGCTGATGCTGCTGAGGCTTTCAGAGTTTCCGTTGCCGGCGGAGCTAGGCCAGCTTTCGCTCCTGCTGATTTGGGACATGGTTTCGGCCTGGCTGAGGTTGAGCTTTACGGTGACGTGGTTCTCCGCTTCGTGTCTTACCCAGATGAGACTGACCTGCCTTTCCTTCCCGGCTTCGAGAGAGTTTCCTCTCCTGGTGCCGTGGATTACGGCCTGACAAGGTTCGACCACGTGGTTGGAAACGTTCCCGAGATGGCTCCAGTGATCGATTACATGAAGGGCTTCCTTGGATTCCATGAGTTCGCCGAGTTCACTGCTGAGGACGTGGGAACCACTGAGTCCGGTTTGAACTCTGTGGTTCTCGCCAACAATTCTGAGGCTGTTTTGCTCCCTCTGAATGAGCCTGTGCATGGAACCAAGAGGAGAAGCCAGATTCAAACTTACCTGGAGTACCACGGTGGCCCTGGAGTTCAGCATATCGCCCTTGCTTCTAATGATGTGTTGCGCACACTCAGAGAGATGCGCGCCAGAACCCCCATGGGAGGTTTCGAGTTCATGGCCCCACCACAGGCTAAGTACTACGAGGGCGTTAGAAGGATTGCTGGAGACGTGTTGAGCGAGGAGCAGATCAAGGAGTGCCAAGAGCTGGGTGTTCTTGTGGATAGGGATGACCAGGGCGTTCTGCTTCAAATTTTCACTAAGCCAGTGGGCGACCGCCCTACATTCTGGCTTGAGATGATTCAAAGAATCGGCTGCATGGAGAAGGATGAGGTTGGACAGGAGTACCAAAAGGGCGGATGCGGTGGCTTCGGAAAGGGTAACTTCAGCGAGTTGTTCAAGTCAATCGAGGACTACGAGAAGAGCCTCGAGGTGAAGCAGTCAGTGGTTGCCCAAAAGTCCTGA
modifications: AsHPPDm-A107-F383W-02 Nucleotide Sequence
notes: vector DBN11779
In the case of B1, in data set [1] (isoxaflutole 140 g ai/ha (2×)), the Resistance evaluation entry is “Moderately”; the “Classification and statistics of the grade of pesticide damage Grade 0” value is given as 7; the “Classification and statistics of the grade of pesticide damage Grade 1” value is recorded as 7; the “Classification and statistics of the grade of pesticide damage Grade 2” value was found to be 1. In addition, in data set [1] (isoxaflutole 140 g ai/ha (2×)), the “Classification and statistics of the grade of pesticide damage Grade 3” value is 1; the Scores was found to be 25. In addition, in data set [1] (isoxaflutole 280 g ai/ha (4×)), the Resistance evaluation entry was “Poorly resistant”; the “Classification and statistics of the grade of pesticide damage Grade 0” value is recorded as 4; the “Classification and statistics of the grade of pesticide damage Grade 1” value is 4; the “Classification and statistics of the grade of pesticide damage Grade 2” value is 7. In data set [1] (isoxaflutole 280 g ai/ha (4×)), the “Classification and statistics of the grade of pesticide damage Grade 3” value turned out to be 1; the Scores stood at 44. Also, in data set [2] (mesotrione 210 g ai/ha (2×)), the Resistance evaluation entry is on record as “Moderately”; the “Classification and statistics of the grade of pesticide damage Grade 0” value was determined as 4; the “Classification and statistics of the grade of pesticide damage Grade 1” value came to 9; the “Classification and statistics of the grade of pesticide damage Grade 2” value stood at 3. Besides, in data set [2] (mesotrione 210 g ai/ha (2×)), the “Classification and statistics of the grade of pesticide damage Grade 3” value is given as 0; the Scores is on record as 31. For the same molecule, in data set [2] (mesotrione 420 g ai/ha (4×)), the Resistance evaluation result is “Poorly resistant”; the “Classification and statistics of the grade of pesticide damage Grade 0” value is given as 0; the “Classification and statistics of the grade of pesticide damage Grade 1” value is listed as 2; the “Classification and statistics of the grade of pesticide damage Grade 2” value came to 14. In data set [2] (mesotrione 420 g ai/ha (4×)), the “Classification and statistics of the grade of pesticide damage Grade 3” value came to 0; the Scores was 63.
